T1: Avo1 (S. cerevisiae, UniProt Q08236 1-1176)
T1 construct: Avo1 of S. cerevisiae (ortholog of hSin1); CRIM domain (residues 647-792 in the model; aa 638-786 in the methods), PH domain (aa 1076-1176); Poorly resolved in the map; only a homology model of the CRIM domain was fitted at a low contour level; source: endogenous, S. cerevisiae cell extract (Bit61-TAP strain lacking Bit2); purified as part of TORC2 on IgG-coated dynabeads, released with TEV …
T1 sequence (looked up): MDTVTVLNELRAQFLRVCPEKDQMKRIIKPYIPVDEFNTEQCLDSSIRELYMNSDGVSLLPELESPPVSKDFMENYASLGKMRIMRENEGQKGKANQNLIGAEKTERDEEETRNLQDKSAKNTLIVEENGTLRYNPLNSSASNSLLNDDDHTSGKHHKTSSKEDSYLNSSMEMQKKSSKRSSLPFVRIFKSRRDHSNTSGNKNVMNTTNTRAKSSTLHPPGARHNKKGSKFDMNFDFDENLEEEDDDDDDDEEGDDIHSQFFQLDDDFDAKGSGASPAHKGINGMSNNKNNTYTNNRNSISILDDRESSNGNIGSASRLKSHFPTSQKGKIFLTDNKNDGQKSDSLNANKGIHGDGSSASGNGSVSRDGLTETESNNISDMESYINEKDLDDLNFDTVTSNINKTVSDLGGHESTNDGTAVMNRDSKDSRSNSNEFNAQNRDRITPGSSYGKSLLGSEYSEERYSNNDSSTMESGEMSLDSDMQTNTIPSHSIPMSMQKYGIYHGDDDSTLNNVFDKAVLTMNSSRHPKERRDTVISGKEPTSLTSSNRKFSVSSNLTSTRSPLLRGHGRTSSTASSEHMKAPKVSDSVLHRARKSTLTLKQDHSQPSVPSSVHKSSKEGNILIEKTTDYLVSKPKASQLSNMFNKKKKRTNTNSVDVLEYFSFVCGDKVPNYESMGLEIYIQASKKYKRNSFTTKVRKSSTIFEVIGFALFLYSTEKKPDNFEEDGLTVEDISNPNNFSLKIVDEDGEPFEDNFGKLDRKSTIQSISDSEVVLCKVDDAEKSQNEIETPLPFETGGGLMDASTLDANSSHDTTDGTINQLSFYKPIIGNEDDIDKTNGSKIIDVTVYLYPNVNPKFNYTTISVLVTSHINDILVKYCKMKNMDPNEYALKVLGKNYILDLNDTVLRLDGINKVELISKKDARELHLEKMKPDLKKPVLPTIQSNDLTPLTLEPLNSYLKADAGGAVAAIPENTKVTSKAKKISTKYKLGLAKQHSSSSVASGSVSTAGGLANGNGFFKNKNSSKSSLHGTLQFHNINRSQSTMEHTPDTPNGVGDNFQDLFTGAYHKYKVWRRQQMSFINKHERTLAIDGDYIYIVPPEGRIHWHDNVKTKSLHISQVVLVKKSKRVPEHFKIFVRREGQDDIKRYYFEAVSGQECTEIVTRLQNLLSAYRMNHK

T2: Avo3 (S. cerevisiae, UniProt P40061 1-1430)
T2 construct: Avo3 of S. cerevisiae (ortholog of Rictor); armadillo-like helical domain in its middle part; Only 17 individual helices are modelled; they are not tied to residue numbers in the text; source: endogenous, S. cerevisiae cell extract (Bit61-TAP strain lacking Bit2); purified as part of TORC2 on IgG-coated dynabeads, released with TEV protease
T2 sequence (looked up): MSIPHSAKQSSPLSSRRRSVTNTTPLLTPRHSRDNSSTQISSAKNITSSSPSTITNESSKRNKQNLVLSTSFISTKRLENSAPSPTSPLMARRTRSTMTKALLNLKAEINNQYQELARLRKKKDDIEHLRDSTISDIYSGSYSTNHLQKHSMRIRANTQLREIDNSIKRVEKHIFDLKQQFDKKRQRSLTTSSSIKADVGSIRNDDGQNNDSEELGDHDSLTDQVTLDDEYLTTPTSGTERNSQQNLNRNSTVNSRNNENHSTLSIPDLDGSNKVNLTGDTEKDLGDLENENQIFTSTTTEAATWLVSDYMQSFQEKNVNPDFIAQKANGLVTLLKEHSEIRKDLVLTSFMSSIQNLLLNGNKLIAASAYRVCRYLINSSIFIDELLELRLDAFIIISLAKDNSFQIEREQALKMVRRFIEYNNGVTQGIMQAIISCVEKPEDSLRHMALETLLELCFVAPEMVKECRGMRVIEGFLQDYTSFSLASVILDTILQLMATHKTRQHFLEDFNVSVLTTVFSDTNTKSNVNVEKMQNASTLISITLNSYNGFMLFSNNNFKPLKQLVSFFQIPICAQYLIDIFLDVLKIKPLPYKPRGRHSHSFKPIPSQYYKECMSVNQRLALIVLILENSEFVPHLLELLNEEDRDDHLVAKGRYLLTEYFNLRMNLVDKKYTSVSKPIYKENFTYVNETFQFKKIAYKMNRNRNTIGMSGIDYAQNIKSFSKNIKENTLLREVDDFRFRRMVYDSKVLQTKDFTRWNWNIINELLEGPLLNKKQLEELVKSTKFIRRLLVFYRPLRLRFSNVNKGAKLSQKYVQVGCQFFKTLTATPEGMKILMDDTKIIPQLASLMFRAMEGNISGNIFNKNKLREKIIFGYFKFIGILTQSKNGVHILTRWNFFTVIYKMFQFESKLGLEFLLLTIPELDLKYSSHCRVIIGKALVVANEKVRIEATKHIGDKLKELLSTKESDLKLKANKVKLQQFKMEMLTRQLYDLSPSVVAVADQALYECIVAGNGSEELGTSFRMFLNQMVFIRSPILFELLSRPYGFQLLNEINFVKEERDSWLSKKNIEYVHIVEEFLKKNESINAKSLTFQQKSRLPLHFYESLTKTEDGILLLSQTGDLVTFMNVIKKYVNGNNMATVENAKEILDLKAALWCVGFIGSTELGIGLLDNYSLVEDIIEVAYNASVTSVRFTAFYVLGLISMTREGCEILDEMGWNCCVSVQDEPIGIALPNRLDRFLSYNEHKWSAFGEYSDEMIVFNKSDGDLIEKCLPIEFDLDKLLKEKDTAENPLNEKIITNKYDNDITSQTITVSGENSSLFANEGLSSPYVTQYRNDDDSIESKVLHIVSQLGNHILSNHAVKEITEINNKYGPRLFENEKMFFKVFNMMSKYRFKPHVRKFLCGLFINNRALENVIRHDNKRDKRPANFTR

B1: Bit61-TAP (natural protein, S. cerevisiae, UniProt P47041 1-543, looked up)
chain: MTAEDILLRERTSTTTQRPVNSEQYLNVQLATAPVKNFQTTSEISRQTLVDTSNDDVYSIKNLKGSRNPISPSVSNVGFQSIFHTVDHPRSKVSVASNHSLRSNDNASAATSKSGSSQIGESHSVDTVECSNNLSKKLSSDAISITQKSLHSTPSGRYMKGKASGFFNRRNRAHTTISSDPASFLTDSSTLHNSSHSFRNVIKNFFQNKSHRHIGQDAIEPAIPNSLSKFLHSSYGRHKSPSQFIHTNAGQLVDSGTSVYSLNVNPSGVNPNTIVEDPLSGTDPASPNPVSMLHDLLRNLPSLEANYKHFNSQELTTLTNNIWNIFCSNVAELFRTQRIWKLRAKIENFNEVLEFYCILKTDPRVTHSGMNRIISDLKEFLVSSLYNLENQIVFNYSNEDTINNALKRLGVIWRIFYQEVYYDLAAVLLPLDQSIREDGNSTVLKSGNESRTHINGNYSIGFLLLMCFRDSIVLPCYENFVNSNDGISKSFQLYIFNQEEESNVTETDKLTLLQCFGILSTIQSNDRNQRIIEELLAGIRMSI
notes: Bit61 of S. cerevisiae (ortholog of Protor), subunit of TORC2; The chain was captured by the protein A part of the TAP tag and set free with TEV protease; also called TAP-tagged Bit61; source: S. cerevisiae Bit61-TAP expressing strain lacking Bit2, cell extract; captured on IgG-coated dynabeads, released with TEV protease

Key:
Assay in all cases: cryo-EM structure; TORC2 purified from S. cerevisiae extract by protein-A affinity purification of Bit61-TAP (IgG-coated dynabeads; 50 mM HEPES pH 7.5, 0.2 mM CHAPS, 300 mM KCl, 0.5 mM DTT wash; TEV release); single-particle cryo-EM, C2 symmetry, 7.9 Å overall; homology models fitted
[1] = biological target: Tor2 (S. cerevisiae) (UniProt P32600)
[2] = biological target: T1, Avo1; details: both partners purified
[3] = biological target: B1; details: both partners purified
[4] = biological target: T3, Tor2 (S. cerevisiae, UniProt P32600 1-2474); details: both partners purified
T3 construct: Tor2, Ser/Thr protein kinase of S. cerevisiae TORC2; HEAT repeats (spiral, bridge), FAT, FRB, kinase and FATC domains; Two copies stand in the TORC2 complex; The model in the map is a homology model built on the K. marxianus Tor-Lst8 structure; also called Sc Tor2; S. cerevisiae Tor2; source: endogenous, S. cerevisiae cell extract (Bit61-TAP strain lacking Bit2); purified as part of TORC2 on …
T3 sequence (P32600 whole entry, the tested form may be a part): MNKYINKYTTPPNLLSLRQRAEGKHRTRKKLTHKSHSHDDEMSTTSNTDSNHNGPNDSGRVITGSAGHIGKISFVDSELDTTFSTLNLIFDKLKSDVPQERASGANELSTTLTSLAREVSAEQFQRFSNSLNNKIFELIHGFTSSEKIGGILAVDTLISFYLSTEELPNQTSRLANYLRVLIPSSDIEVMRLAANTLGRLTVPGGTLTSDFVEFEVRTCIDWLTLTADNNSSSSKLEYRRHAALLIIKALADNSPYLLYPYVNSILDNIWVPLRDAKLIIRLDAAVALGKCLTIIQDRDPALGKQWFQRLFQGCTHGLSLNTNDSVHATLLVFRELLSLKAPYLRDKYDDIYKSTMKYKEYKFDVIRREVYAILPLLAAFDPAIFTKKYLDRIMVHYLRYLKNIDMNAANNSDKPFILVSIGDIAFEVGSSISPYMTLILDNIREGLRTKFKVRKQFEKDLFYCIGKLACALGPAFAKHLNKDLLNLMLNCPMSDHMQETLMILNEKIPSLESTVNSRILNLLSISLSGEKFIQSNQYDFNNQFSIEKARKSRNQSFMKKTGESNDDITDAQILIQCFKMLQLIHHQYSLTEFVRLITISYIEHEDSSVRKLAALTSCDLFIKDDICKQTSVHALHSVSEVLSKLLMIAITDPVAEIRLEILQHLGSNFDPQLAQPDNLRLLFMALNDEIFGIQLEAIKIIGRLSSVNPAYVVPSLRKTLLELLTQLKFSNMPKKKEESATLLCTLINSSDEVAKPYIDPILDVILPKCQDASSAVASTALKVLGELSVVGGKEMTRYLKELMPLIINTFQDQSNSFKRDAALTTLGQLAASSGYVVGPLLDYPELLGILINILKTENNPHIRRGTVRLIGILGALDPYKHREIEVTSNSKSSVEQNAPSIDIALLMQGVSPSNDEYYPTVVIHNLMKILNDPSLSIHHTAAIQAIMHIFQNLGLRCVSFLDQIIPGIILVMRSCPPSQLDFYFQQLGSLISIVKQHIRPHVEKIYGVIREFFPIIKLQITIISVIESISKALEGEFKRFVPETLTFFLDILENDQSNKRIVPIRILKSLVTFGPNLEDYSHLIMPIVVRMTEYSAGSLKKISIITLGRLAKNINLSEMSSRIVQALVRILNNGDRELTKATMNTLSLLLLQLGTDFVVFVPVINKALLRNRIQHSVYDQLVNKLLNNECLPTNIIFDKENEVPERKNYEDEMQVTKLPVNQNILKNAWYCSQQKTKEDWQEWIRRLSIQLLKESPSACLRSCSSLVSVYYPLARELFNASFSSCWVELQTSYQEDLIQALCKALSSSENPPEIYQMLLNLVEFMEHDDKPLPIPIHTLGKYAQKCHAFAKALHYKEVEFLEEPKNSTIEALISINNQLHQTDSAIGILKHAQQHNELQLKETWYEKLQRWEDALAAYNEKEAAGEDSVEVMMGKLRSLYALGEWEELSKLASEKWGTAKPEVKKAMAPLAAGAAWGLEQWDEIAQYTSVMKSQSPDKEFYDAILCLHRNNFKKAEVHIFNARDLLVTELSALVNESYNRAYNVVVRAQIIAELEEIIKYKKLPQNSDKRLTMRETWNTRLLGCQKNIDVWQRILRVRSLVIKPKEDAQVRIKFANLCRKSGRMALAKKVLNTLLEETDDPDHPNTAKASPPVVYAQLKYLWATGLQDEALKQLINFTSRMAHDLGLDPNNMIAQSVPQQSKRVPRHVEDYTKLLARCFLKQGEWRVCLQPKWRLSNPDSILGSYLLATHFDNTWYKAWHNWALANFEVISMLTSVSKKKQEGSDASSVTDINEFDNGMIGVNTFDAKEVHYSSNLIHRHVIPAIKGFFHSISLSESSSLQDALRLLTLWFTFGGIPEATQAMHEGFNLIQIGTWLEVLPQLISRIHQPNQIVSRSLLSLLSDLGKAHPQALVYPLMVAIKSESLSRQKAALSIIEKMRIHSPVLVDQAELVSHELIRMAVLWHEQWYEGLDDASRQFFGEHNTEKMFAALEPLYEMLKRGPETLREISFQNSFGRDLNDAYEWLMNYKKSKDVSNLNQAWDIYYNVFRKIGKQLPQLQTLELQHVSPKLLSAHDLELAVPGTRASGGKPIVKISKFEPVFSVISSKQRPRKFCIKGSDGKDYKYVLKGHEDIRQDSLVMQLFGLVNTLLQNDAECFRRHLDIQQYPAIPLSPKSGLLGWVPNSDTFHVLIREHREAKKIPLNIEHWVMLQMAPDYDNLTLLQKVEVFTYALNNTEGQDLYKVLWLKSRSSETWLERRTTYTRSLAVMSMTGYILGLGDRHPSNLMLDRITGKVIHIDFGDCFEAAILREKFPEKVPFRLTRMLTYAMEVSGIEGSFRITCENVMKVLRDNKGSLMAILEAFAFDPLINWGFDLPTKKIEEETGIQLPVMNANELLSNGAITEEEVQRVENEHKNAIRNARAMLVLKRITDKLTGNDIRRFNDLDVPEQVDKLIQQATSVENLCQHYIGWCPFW

[5] = biological target: T2, Avo3; details: both partners purified

| Molecule | stoichiometry N [1] | binding result [2] | binding result [3] | binding result [4] | binding result [5] |
| --- | --- | --- | --- | --- | --- |
| Tor2, P32600 1-2474 | 2 |  |  |  |  |
| Lst8 (natural protein, S. cerevisiae, UniProt P41318 1-303, looked up, Lst8 of S. cerevisiae, composed entirely of WD40 repeats (beta propeller); Two copies stand in the TORC2 complex; source: endogenous, S. cerevisiae cell extract (Bit61-TAP strain lacking Bit2); purified as part of TORC2 on IgG-coated dynabeads, released with TEV protease) MSVILVSAGYDHTIRFWEALTGVCSRTIQHSDSQVNRLEITNDKKLLATAGHQNVRLYDIRTTNPNPVASFEGHRGNVTSVSFQQDNRWMVTSSEDGTIKVWDVRSPSIPRNYKHNAPVNEVVIHPNQGELISCDRDGNIRIWDLGENQCTHQLTPEDDTSLQSLSMASDGSMLAAANTKGNCYVWEMPNHTDASHLKPVTKFRAHSTYITRILLSSDVKHLATCSADHTARVWSIDDDFKLETTLDGHQRWVWDCAFSADSAYLVTASSDHYVRLWDLSTREIVRQYGGHHKGAVCVALNDV |  | binds | binds | binds |  |
| B1 |  | binds |  | binds | binds |
| Avo2 (natural protein, S. cerevisiae, UniProt Q04749 1-426, looked up, Avo2 of S. cerevisiae; N-terminal five ankyrin repeats (residues 4-171; modelled aa 4-163); Only the ankyrin repeats are modelled in the map; source: endogenous, S. cerevisiae cell extract (Bit61-TAP strain lacking Bit2); purified as part of TORC2 on IgG-coated dynabeads, released with TEV protease) MLKEPSVRLREAIIEGNLLIVKRLLRRNPDLLTNIDSENGWSSLHYASYHGRYLICVYLIQLGHDKHELIKTFKGNTCVHLALMKGHEQTLHLLLQQFPRFINHRGENGRAPIHIACMNDYYQCLSLLIGVGADLWVMDTNGDTPLHVCLEYGSISCMKMLLNEGEVSLDDNVRDKGNWKPIDVAQTFEVGNIYSKVLKEVKKKGPPLGAGKKPSSFRTPILNAKATFEDGPSPVLSMNSPYSLYSNNSPLPVLPRRISTHTTSGNGGNRRSSITNPVFNPRKPTLSTDSFSSSSNSSSRLRVNSINVKTPVGVSPKKELVSESVRHSATPTSPHNNIALINRYLLPNKSNDNVRGDSQTATINDDGGGGNGGDATIGMGLRKDPDDENENKYKIKVNNGEPRRRVSLLNIPISKLRNSNNTRAED |  |  | binds | binds |  |
